According to patent US11466080B2, “Methods of treating cancer using anti-LRP1 polyclonal antibodies” (Children's Medical Center Corporation, priority 2017, dated 2022):
Like-named read-outs stand apart in the source and are kept apart here. One block for each molecule: values may come before it.

Experiments:
[1] = system: Tsp-1; assay: Western blot of Tsp-1 in lung fibroblasts treated with LN4 conditioned media; assay type: cell-based; conditions: WI38 cells, LN4 CM with Rac1 inhibitor
Description: FIG. 11. Western blot analysis of Tsp-1 and β-actin expression in lung fibroblasts that were untreated (−) or treated with LN4 CM alone or in combination with STI.
FIG. 12. Western blot analysis of Tsp-1 and β-actin expression in lung fibroblasts that is were untreated (−) or treated with LN4 CM alone or in combination with Rac1 inhibitor.
Attention was then turned to the mechanism by which PC3M-LN4 cells repress Tsp-1 in the tumor microenvironment. In doing so, LN4 conditioned media (CM) was fractionated over a Cu^2+/heparin sepharose column with increasing concentrations of NaCl. The eluted fractions were used to treat lung fibroblasts and Tsp-1 induction was analyzed by western blot. […] By analyzing the protein content of the eluted fractions by tandem liquid chromatography/mass spectrometry (LC/MS), a protein was identified that was present in the active fractions of LN4 CM, but not present in the adjacent fractions or the fractions eluted with the same NaCl concentrations from PC3 CM. The identified protein was the serine protease PRSS2. […] Finally, the signaling pathway emanating from LRP1 that was mediating the PRSS2-induced repression of Tsp-1 was sought to be delineated. […]

[2] = system: p53; assay: Western blot of p53 in prostate fibroblasts treated with PC3-conditioned media; assay type: cell-based
Description: (§1) FIGS. 6A-6B. Western blot analysis of: (FIG. 6A) Tsp-1 and β-actin expression in prostate fibroblasts that were untreated (−) or treated with conditioned media from PC3 cells alone or in combination with RAP, and (FIG. 6B) Tsp-1, p53 and β-actin expression in prostate fibroblasts that were untreated (−) or treated with conditioned media from PC3 cells alone or in combination with the PKC inhibitor Gδ 6983 (PKCi).
(§2) Thus, in order to determine how prosaposin was able to stimulate the expression of Tsp-1 and p53 in tumor-associated fibroblasts, prostate fibroblasts were treated with PC3-conditioned media in the presence and absence of Receptor Associate Protein (RAP), a competitive inhibitor or LRP1 binding. […] To determine whether prosaposin-mediated stimulation of Tsp-1 utilized this pathway, fibroblasts were treated with CM from PC3 cells in the presence and absence of the PKC inhibitor Gö 6983. […] Thus, it is believed that Prosaposin functions via binding to LRP1.

[3] = system: Tsp-1; assay: Western blot of Tsp-1 in prostate fibroblasts treated with PC3-conditioned media; assay type: cell-based
Description: as §1, §2

[4] = system: Tsp-1; assay: Western blot of Tsp-1 in lung fibroblasts treated with psap peptide; assay type: cell-based; conditions: peptide with 25 or 50 μg rhRAP or with Y27632
Description: FIGS. 8A-8B. Western blot analysis of Tsp-1 and β-actin expression in lung fibroblasts, which were (FIG. 8A) untreated (−) or treated with psap peptide alone or in combination with 25 or 50 μg of rhRAP, and (FIG. 8B) untreated (−) or treated with psap peptide alone or with Y27632.
In order to delineate the pathway leading from LRP1 to Tsp-1 stimulation by prosaposin, two pathways that have been reported to be stimulated by LRP1 under different conditions were chosen to be examined: Rho and Rac.

[5] = biological target: PRSS2 (Homo sapiens, UniProt P07478); assay: Co-immunoprecipitation of LRP1 peptides with PRSS2; assay type: binding
Sequence of PRSS2 (P07478 16-247 limits assumed): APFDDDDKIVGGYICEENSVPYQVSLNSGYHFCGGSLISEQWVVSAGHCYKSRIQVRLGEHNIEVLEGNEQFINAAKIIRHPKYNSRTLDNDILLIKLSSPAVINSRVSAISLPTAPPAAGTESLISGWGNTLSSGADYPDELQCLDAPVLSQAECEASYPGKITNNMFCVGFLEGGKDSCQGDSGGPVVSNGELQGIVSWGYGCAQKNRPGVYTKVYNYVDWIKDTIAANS
Description: (§3) FIGS. 16A-16B. Co-immunoprecipitation of LRP1 peptides with PSAP (FIG. 16A) or PRSS2 (FIG. 16B).
(§4) To map the binding sites on LRP1 that binds to prosaposin (PSAP) and/or PRSS2, peptides derived from binding domain I of LRP1 (SEQ ID NOs: 3 and 7-18) were tested for their ability to co-immunoprecipitate with PSAP or PRSS2.

[6] = biological target: T1, prosaposin (PSAP) (Homo sapiens, UniProt P07602); assay: Co-immunoprecipitation of LRP1 peptides with PSAP; assay type: binding
T1 sequence (P07602 60-524): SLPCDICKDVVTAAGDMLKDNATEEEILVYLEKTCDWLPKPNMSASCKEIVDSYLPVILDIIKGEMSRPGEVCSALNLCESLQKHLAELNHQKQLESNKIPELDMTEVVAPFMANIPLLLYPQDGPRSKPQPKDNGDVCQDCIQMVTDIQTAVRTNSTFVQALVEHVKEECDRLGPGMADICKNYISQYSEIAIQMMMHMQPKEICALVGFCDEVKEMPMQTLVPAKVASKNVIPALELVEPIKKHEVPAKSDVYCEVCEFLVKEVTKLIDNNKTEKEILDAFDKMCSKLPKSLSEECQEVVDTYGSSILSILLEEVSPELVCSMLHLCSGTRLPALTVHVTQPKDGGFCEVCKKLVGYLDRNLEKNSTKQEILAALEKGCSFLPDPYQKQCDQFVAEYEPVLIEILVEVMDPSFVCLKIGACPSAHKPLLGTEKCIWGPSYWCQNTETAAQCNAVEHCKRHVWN
Description: as §3, §4

Molecule: CCN(CC)CCCC(C)Nc1nc(C)cc(Nc2ccc3nc(C)cc(N)c3c2)n1 (racemic) [Rac1 inhibitor]
Tsp-1 levels under LN4 CM in presence of the substance [1]: restored to basal levels

Molecule: COc1ccc2c(c1)c(C1=C(c3c[nH]c4ccccc34)C(=O)NC1=O)cn2CCCN(C)C [Gö 6983, reference compound]
stimulation of p53 by PC3-conditioned media in the presence of the substance [2]: abolished the stimulation of Tsp-1 and p53
stimulation of Tsp-1 by PC3-conditioned media in the presence of the substance [3]: abolished the stimulation of Tsp-1 and p53

Molecule: C[C@@H](N)[C@H]1CC[C@H](C(=O)Nc2ccncc2)CC1 [Peptide Y27632, Y27632, reference compound]
effect of co-treatment on stimulation of Tsp-1 by the peptide [4]: completely abrogated

binding to PRSS2 (co-immunoprecipitation) ([5]; listed as peptide 12): bind to both PRSS2 and PSAP
binding to PSAP (co-immunoprecipitation) ([6]; listed as peptide 12): bind to both PRSS2 and PSAP
Molecule: Peptide 12: amino acids 140-164 of LRP1, SEQ ID NO: 18, YGTCSQLCTNTDGSFICGCVEGYLL
binding to PRSS2 (co-immunoprecipitation) [5]: Peptide 12 (amino acids 140-164 of LRP1, binds to

binding to PRSS2 (co-immunoprecipitation) ([5]; listed as peptide 13): bind to both PRSS2 and PSAP
binding to PSAP (co-immunoprecipitation) ([6]; listed as peptide 13): bind to both PRSS2 and PSAP
Molecule: Peptide 13: amino acids 151-172 of LRP1, SEQ ID NO: 3, FICGCVEGYLLQPDNRSCKAKN

B1: RAP: Receptor Associate Protein (RAP), a competitive inhibitor or LRP1 binding (protein, UniProt P30533 35-357, looked up)
Alpha-2-macroglobulin …: YSREKNQPKPSPKRESGEEFRMEKLNQLWEKAQRLHLPPVRLAELHADLKIQERDELAWKKLKLDGLDEDGEKEARLIRNLNVILAKYGLDGKKDARQVTSNSLSGTQEDGLDDPRLEKLWHKAKTSGKFSGEELDKLWREFLHHKEKVHEYNVLLETLSRTEEIHENVISPSDLSDIKGSVLHSRHTELKEKLRSINQGLDRLRRVSHQGYSTEAEFEEPRVIDLWDLAQSANLTDKELEAFREELKHFEAKIEKHNHYQKQLEIAHEKLRHAESVGDGERVSRSREKHALLEGRTKELGYTVKKHLQDLSGRISRARHNEL
effect of co-treatment on stimulation of Tsp-1 by the peptide [4]: blocked the stimulation of Tsp-1 in a dose-dependent fashion
stimulation of Tsp-1 by PC3-conditioned media in the presence of the substance [3]: no longer stimulated Tsp-1
